The assay deals with T1, tuberous sclerosis complex 1 (TSC1), human, subunit of the purified TSC complex (human), Q92574.
T1 chain: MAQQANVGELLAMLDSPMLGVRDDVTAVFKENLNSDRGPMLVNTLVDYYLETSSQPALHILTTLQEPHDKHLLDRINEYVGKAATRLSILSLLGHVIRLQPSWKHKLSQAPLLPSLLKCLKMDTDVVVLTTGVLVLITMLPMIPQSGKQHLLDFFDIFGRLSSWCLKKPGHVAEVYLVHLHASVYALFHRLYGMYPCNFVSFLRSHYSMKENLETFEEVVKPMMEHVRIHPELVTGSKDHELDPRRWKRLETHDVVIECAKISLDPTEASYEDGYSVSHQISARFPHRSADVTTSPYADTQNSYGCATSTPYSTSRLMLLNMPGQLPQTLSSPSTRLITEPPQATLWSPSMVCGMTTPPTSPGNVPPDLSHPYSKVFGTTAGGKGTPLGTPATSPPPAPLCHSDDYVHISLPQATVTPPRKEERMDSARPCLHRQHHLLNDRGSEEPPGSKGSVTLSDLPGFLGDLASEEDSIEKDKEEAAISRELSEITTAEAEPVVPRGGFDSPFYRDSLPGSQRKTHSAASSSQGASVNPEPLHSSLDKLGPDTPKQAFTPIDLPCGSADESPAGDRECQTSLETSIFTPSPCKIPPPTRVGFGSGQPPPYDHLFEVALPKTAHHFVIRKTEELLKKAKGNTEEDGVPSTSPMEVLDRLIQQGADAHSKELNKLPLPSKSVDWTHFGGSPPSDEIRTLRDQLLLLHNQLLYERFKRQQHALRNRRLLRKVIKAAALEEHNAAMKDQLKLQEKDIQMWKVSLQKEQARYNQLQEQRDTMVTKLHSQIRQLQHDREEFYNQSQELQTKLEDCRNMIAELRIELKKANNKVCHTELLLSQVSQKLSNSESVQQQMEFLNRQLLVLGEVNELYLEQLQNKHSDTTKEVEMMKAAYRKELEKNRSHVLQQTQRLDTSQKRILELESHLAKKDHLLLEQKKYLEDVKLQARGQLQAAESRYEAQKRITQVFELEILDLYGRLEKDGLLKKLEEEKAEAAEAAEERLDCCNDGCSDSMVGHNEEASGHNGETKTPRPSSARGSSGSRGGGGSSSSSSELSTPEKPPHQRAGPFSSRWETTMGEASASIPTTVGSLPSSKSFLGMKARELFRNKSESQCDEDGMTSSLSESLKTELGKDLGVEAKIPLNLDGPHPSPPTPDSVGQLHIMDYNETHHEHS
As to the kind of experiment: cryo-EM structure; human TSC complex (TSC1, TSC2, TBC1D7) co-expressed in Expi293F, purified, cross-linked by Grafix (glutaraldehyde); single particle reconstruction, 4.4 Å overall, core 3.6 Å, wings 3.9 and 4.1 Å. To be noted: remark: other sources report otherwise.

As usually defined, the stoichiometry N is a count of units in the complex or per binding partner.

B1: tuberous sclerosis complex 1 (TSC1), human, subunit of the purified TSC complex, Q92574 1-1164 (natural protein)
chain: MAQQANVGELLAMLDSPMLGVRDDVTAVFKENLNSDRGPMLVNTLVDYYLETSSQPALHILTTLQEPHDKHLLDRINEYVGKAATRLSILSLLGHVIRLQPSWKHKLSQAPLLPSLLKCLKMDTDVVVLTTGVLVLITMLPMIPQSGKQHLLDFFDIFGRLSSWCLKKPGHVAEVYLVHLHASVYALFHRLYGMYPCNFVSFLRSHYSMKENLETFEEVVKPMMEHVRIHPELVTGSKDHELDPRRWKRLETHDVVIECAKISLDPTEASYEDGYSVSHQISARFPHRSADVTTSPYADTQNSYGCATSTPYSTSRLMLLNMPGQLPQTLSSPSTRLITEPPQATLWSPSMVCGMTTPPTSPGNVPPDLSHPYSKVFGTTAGGKGTPLGTPATSPPPAPLCHSDDYVHISLPQATVTPPRKEERMDSARPCLHRQHHLLNDRGSEEPPGSKGSVTLSDLPGFLGDLASEEDSIEKDKEEAAISRELSEITTAEAEPVVPRGGFDSPFYRDSLPGSQRKTHSAASSSQGASVNPEPLHSSLDKLGPDTPKQAFTPIDLPCGSADESPAGDRECQTSLETSIFTPSPCKIPPPTRVGFGSGQPPPYDHLFEVALPKTAHHFVIRKTEELLKKAKGNTEEDGVPSTSPMEVLDRLIQQGADAHSKELNKLPLPSKSVDWTHFGGSPPSDEIRTLRDQLLLLHNQLLYERFKRQQHALRNRRLLRKVIKAAALEEHNAAMKDQLKLQEKDIQMWKVSLQKEQARYNQLQEQRDTMVTKLHSQIRQLQHDREEFYNQSQELQTKLEDCRNMIAELRIELKKANNKVCHTELLLSQVSQKLSNSESVQQQMEFLNRQLLVLGEVNELYLEQLQNKHSDTTKEVEMMKAAYRKELEKNRSHVLQQTQRLDTSQKRILELESHLAKKDHLLLEQKKYLEDVKLQARGQLQAAESRYEAQKRITQVFELEILDLYGRLEKDGLLKKLEEEKAEAAEAAEERLDCCNDGCSDSMVGHNEEASGHNGETKTPRPSSARGSSGSRGGGGSSSSSSELSTPEKPPHQRAGPFSSRWETTMGEASASIPTTVGSLPSSKSFLGMKARELFRNKSESQCDEDGMTSSLSESLKTELGKDLGVEAKIPLNLDGPHPSPPTPDSVGQLHIMDYNETHHEHS
For B1, the stoichiometry N was found to be 2.

The values are drawn from PMC7804450.
